Assay results from patent US20170260284A1 (NATIONAL CANCER CENTER, published 2017).

T1: human transmembrane protein 180 (TMEM-180), endogenous on human cancer cells (human, UniProt Q14CX5 1-517)
T1 construct: Membrane protein expressed endogenously by human colon cancer lines (DLD-1 and others), brain tumor lines and colon cancer tissue; also called TMEM-180 on DLD-1 cells
T1 sequence: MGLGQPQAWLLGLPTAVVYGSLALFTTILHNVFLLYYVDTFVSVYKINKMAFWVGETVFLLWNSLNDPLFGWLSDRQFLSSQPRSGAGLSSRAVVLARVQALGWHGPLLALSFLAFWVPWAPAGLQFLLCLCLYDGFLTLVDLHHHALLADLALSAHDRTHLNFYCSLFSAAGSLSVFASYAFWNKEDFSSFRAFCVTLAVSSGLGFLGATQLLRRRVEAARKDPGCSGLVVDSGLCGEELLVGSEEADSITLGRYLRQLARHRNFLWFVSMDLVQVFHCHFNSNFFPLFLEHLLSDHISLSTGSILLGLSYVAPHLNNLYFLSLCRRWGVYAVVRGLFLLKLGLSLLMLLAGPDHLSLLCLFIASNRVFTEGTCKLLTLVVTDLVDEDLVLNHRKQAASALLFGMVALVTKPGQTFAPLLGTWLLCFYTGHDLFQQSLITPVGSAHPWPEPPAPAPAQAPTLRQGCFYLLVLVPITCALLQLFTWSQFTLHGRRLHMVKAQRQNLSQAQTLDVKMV

B1: anti-TMEM-180 antibody clone 101 (rat IgM) (antibody, V domains shown)
VH: QVQLKETGPGLVQPTQTLSITCTVSGFSLTSYYMQWVRQTPGKGLEWMGFIRSGGSTEYNSEFKSRLSISRDTSKNQVFLKMNSLKTEDTGVYYCARAFYGGYYFDYWGQGVMVTVSS
VL: DIVMTQSPTSISISVGERVTMNCKASQNVGSNVDWYQQKTGQSPKLLIYKASNRYTGVPDRFTGSGSGTDFTFTISNMQAEDLAVYYCMQSNTKYTFGAGTKLELK
notes: Rat IgM from hybridoma; the entries appear to include a leader and no cleavage site is stated
B2: anti-TMEM-180 antibody clone 212 (rat IgM) (antibody, V domains shown)
VH: EVQLVESGGGLVQPGNSLKLSCAASGFTFSDYAMAWVRQSPKKGLEWVATIIYDGSSTYYRDSVKGRFTISRDNAKSTLYLQMDSLRSEDTATYYCATHWYWYFDFWGPGTMVTVSS
VL: DIQMTQSPASLSASLGETVSIECLASEGISNDLAWYQQKSGKSPQLLIYAASRLQDGVPSRFSGSGSGTRYSLKISGMQPEDEADYFCQQSYKYPLTFGSGTKLEIK
notes: as for B1
B3: rat-human chimeric antibody clone 98 (antibody, V domains shown)
VH: QVQLKESGPGLVQPSQTLSLTCTVSGFSLTRYNVHWVRQPTGKGLEWMGVIWTGGSTDYNSALKSRLSISRDTSKSQVFLKMNSLQTEDIATYYCARDLGYWGQGVMVTVSS
VL: DIVMTQTPLSLSVAIGQSASISCKSSQSLKYRDGKTYLNWVFQSPGQSPKRLIYQVSKLDSGVPDRFSGTGSETDFTLKISRVEAEDLGVYYCCQGSYSPHTFGAGTKLELK
notes: Used as culture supernatant diluted two-fold; also called human chimeric IgG antibody
B4: rat IgM antibody clone 98 (anti-TMEM-180 antibody clone 98) (antibody, V domains shown)
VH: QVQLKESGPGLVQPSQTLSLTCTVSGFSLTRYNVHWVRQPTGKGLEWMGVIWTGGSTDYNSALKSRLSISRDTSKSQVFLKMNSLQTEDIATYYCARDLGYWGQGVMVTVSS
VL: DIVMTQTPLSLSVAIGQSASISCKSSQSLKYRDGKTYLNWVFQSPGQSPKRLIYQVSKLDSGVPDRFSGTGSETDFTLKISRVEAEDLGVYYCCQGSYSPHTFGAGTKLELK
notes: Rat IgM from hybridoma, used as culture supernatant; also called IgM 98; Anti-TMEM-180 IgM rat antibody (clone 98)
B5: anti-TMEM-180 antibody clone 1052 (rat IgM) (antibody, V domains shown)
VH: QVQLKESGPGLMQPSETLSLTCTVSGFSLTSNGVGWVRQPLGKGLVWMGTIWTGGGTNYNSGVQSRLSISRDTSKSQVFLKMNSLQPEDTGTYYCAREYMGFDYWGQGVMVTVSS
VL: NTVMTQSPTSMFTSVGDRVTMSCKASQNVGINVGWYQQKTGQSPKRLIYWASNRDTGVPDRFTGSGSGTDFTLTISNMQAEDPAIYYCLQHNSYPRTFGGGTKLELK
notes: the entries appear to include a leader
B6: anti-TMEM-180 antibody clone 1105 (rat IgM) (antibody, V domains shown)
VH: QVQLKESGPGLMQPSETLSLTCTVSGFSLTSNGVGWVRQPLGKGLVWMGTIWSGGGTNYNSAVQSRLSITRDTSKSQVFLKMNSLQPEDTGTYYCAREEKGFAYWGQGTLVTVSS
VL: NIVMTQSPTSMSTSVGDRVTMSCKASQNVGINVGWYQQKTGQSPKRLIYWASNRDTGVPDRFTGSGSGTDFTLTISNMQAEDPAIYYCLQHNSYPRAFGGGTKLELR
notes: as for B5
B7: anti-TMEM-180 antibody clone 129 (rat IgG) (antibody, V domains shown)
VH: QIQLVQSGPELKKPGESVKISCKASGYTFTDCALNWVKQAPGNGLKWMGWINTQTGKPTYADDFKQRFVFSLETSASTAYLQINNLNIEDTATYFCTREDYGYFDYWGQGVMVTVSS
VL: DIQMTQSPPSLSASLGDKVTITCQASQNINKFIAWYQQKPGKAPRHLVHYTSTLVSGTPSRFSGSGSGRDYSFSISNVESEDIASYYCLQYDNLRTFGGGTKLELK
notes: as for B5
B8: anti-TMEM-180 antibody clone 382 (rat IgG) (antibody, V domains shown)
VH: EVQLVESGGGLVQPGRSLKLSCAASGFTFSNYGMHWIRQAPTKGLEWVASISPSGGSTYYRDSVKGRFTISRDNAKSTLYLQMDSLRSEDTATYYCATSASITAYYYVMDAWGQGASVTVSS
VL: DIVMTQSPTSMSISVGDRVTMNCKASQNVGSNVDWYQQKTGQSPKLLIYKASNRYTGVPDRFTGSGSGTDFTFTISNMQAEDLAVYYCMQSNSYPPTFGGGTKLELR
notes: as for B5
B9: anti-TMEM-180 antibody clone 699 (rat IgM) (antibody, V domains shown)
VH: QVQLQQSGAELTKPGSSVKISCKASGYTFTSYDISWIKQRPGQALEWIGAINPGSGGTGYNEKFKGKATLTVDKSSSTAFMQLSSLTPEDTAVYYCARIHGGYRYWFAYWGQGTLVTVSS
VL: EIVLTQSPTTMAASPGEKVTITCRASSSVSYMHWFQQKSGTSPKPWIYDTSKLASGVPDRFSGSGSGTSYSLTISSMEAEDAATYYCLQRSSYPPTFGAGTKLELK
notes: as for B5

The binders below were run against T1, human transmembrane protein 180 … (assay: flow cytometry on colon cancer and brain tumor cell lines).

Q: Does B1 bind?
A: binds

Q: Does B2 bind?
A: binds

What follows are binders tested against T1, human transmembrane protein 180 … (assay: flow cytometry, DLD-1 parent line against TMEM-180 knockout line; culture supernatant diluted two-fold).
Protocol: The plate was centrifuged for 3 minutes at 440×g and 4° C. followed by removing the supernatant, adding antibody-producing hybridoma culture supernatant or antibody solution to the cell pellet at 50 μL/well and suspending therein. After allowing to react for 45 minutes on ice, the plate was washed three times with a mixture of 0.1% BSA, 2 mM EDTA and PBS at 200 μL/well. The supernatant was removed and secondary antibody was added to the cell pellet at 50 μL/well followed by suspending the cells therein. AlexaFluor 647 goat anti-rat IgG (H-L) (Life Technologies Corporation) was used for the secondary antibody after diluting 400-fold with a mixture of 0.1% BSA, 2 mM EDTA and PBS. After allowing to react for 45 minutes on ice, the plate was washed three times with a mixture of 0.1% BSA, 2 mM EDTA and PBS at 200 μL/well. […] The cells stained in this manner were measured using a flow cytometer such as the Guava easyCyte 8HT (Merck Millipore Corporation) followed by analysis of the resulting data using FlowJO (Tomy Digital Biology Co., Ltd.). […]
Flow cytometry was carried out in accordance with the procedure described in the above-mentioned section 3. […] Furthermore, antibody concentration in the hybridoma culture supernatant was measured by rat IgM-specific ELISA (Bethyl Laboratories).

Q: Does B3 bind?
A: binds

The binders below were run against T1, human transmembrane protein 180 … (assay: flow cytometry, hybridoma supernatant on DLD-1 cells (selection of clones)).

Q: Does B4 bind?
A: binds

Q: Does B5 bind?
A: binds

Q: Does B6 bind?
A: binds

Q: Does B7 bind?
A: binds

Q: Does B8 bind?
A: binds

Q: Does B9 bind?
A: binds
